Results published in paper PMC5943054.

Target: TgPLP1 MACPF domain (residues 462 to 809, N720Q/N744Q), trypsinized in situ (TMH2 cut away) (Toxoplasma gondii) (UniProt V5BCL0)
Experiment: crystal structure; second crystal form of the trypsinized MACPF domain, about 5 Å (5.0 in text, 5.11 in Table 1); 0.1 M Hepes pH 7.5, 10% alcohol mixture, 15% PEG-1000, 15% PEG-3350, 15% MPD; ring assembly, rigid-body refinement only

## TgPLP1 MACPF domain (residues 462 to 809, N720Q/N744Q), trypsinized in situ (TMH2 cut away) (from UniProt V5BCL0 462-809) (domain or fragment)
  stoichiometry N: 6
